How the values were obtained:
[1] = biological target: T1, mouse ROR1 (on 4T1 cells engineered to overexpress it) (mouse, UniProt Q9Z139 30-937); assay: flow cytometry, 4T1 cells overexpressing mouse ROR1
T1 construct: whole, on cells; also called muROR1; mROR1
Protocol: (§1) After 15-minutes of incubation at room temperature, the cells were washed twice with 200 μL of PBS by centrifugation at 500×g for 5 minutes at room temperature and resuspended in […] of 10% goat serum in BD staining buffer (BD Biosciences, Cat No: 554657). […] The plates were then covered with foil to avoid direct light and incubated for 60 minutes at 4° C. […] After incubating for 30 minutes at 4° C., the cells were washed twice with 200 μL of PBS by centrifugation at 500×g for 5 minutes at room temperature and resuspended into 100 μL of fixation buffer (BioLegend, Cat No: 420801). The samples were then analyzed on a flow cytometer for binding signal using FlowJo software. ROR and CD3 binding EC₅₀s (concentration vs mean fluorescence intensity (MFI)) for reference molecules and test bispecific TCEs were obtained using 4-parameter non-linear regression curve fitting in GraphPad Prism.

[2] = biological target: T2, human ROR1 (on cells) (human, UniProt Q01973 30-937); assay: flow cytometry, MDA-MB-231 cells; reference: 82H02 TCE #4
T2 construct: Entry given with its signal peptide; also called hROR1; huROR1

[3] = biological target: T2, human ROR1 (on cells); assay: cell-based or functional assay
[4] = biological target: T1, mouse ROR1 (on 4T1 cells engineered to …); assay: flow cytometry; reference: human ROR1 on MDA-MB-231 cells
[5] = biological target: T2, human ROR1 (on cells); assay: cell-based or functional assay; remark: listed apart in the source
[6] = biological target: T3, human CD3 (on Jurkat T cells or human CD8+ T cells) (human, UniProt P07766 23-207; P09693 23-182; P04234 22-171; P20963 22-164); assay: flow cytometry, human CD8+ T cells
T3 construct: Entries are printed with signal peptides; also called huCD3; CD3ε
T3 sequence (P07766 23-207 limits assumed, chain 1 of 4): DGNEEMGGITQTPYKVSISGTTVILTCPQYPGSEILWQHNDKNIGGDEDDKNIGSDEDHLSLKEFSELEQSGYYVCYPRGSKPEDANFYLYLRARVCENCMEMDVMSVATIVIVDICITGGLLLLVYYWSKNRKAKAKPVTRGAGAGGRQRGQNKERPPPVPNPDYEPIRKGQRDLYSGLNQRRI
T3 sequence (P09693 23-182 limits assumed, chain 2 of 4): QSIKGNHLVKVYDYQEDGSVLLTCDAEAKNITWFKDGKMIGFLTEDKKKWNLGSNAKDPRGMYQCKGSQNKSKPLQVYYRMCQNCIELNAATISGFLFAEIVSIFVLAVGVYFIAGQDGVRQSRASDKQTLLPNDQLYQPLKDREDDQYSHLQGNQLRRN
T3 sequence (P04234 22-171 limits assumed, chain 3 of 4): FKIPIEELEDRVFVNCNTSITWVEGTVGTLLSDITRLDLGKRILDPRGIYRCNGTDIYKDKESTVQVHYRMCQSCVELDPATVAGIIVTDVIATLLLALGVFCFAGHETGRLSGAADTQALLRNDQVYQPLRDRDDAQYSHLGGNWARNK
T3 sequence (P20963 22-164 limits assumed, chain 4 of 4): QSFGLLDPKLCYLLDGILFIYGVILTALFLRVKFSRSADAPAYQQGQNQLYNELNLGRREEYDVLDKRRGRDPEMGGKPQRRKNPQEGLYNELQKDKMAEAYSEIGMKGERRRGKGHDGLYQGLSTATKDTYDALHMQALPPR
Protocol: as §1

[7] = biological target: T2, human ROR1 (on cells); assay: cell-based or functional assay; remark: listed apart in the source
[8] = biological target: T1, mouse ROR1 (on 4T1 cells engineered to …); assay: flow cytometry, 4T1-muROR1 cells; reference: 82H02 TCE #4
Protocol: as §1

[9] = biological target: T4, cynomolgus CD3 (on cynomolgus pan-T cells) (cynomolgus, UniProt Q95LI5 22-198); assay: flow cytometry, cynomolgus pan-T cells
T4 construct: whole, on cells
T4 sequence (Q95LI5 22-198): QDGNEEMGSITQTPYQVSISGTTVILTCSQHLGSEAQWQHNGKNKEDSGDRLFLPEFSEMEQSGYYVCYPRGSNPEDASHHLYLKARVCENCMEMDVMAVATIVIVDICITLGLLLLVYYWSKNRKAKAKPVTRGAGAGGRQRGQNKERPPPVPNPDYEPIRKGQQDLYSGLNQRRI
Protocol: as §1

[10] = biological target: T2, human ROR1 (on cells); assay: flow cytometry, ROR1+ MDA-MB-231 cells
Protocol: as §1

[11] = biological target: T2, human ROR1 (on cells); assay: cell-based or functional assay; remark: listed apart in the source
[12] = biological target: T5, human ROR2 (on recombinant cell lines) (human, UniProt Q01974 34-943); assay: flow cytometry on recombinant cell lines; confirmed by standard ELISA
T5 construct: whole, on cells

[13] = biological target: T6, human Fc-Frizzled-Kringle fusion protein (human Fc fused to the Frizzled and Kringle domains of human ROR1) (human); assay: yeast surface display sorting
T6 construct: Entry is printed with a leader; also called huFc-frz-KNG
T6 sequence (chain, as listed by the source limits assumed): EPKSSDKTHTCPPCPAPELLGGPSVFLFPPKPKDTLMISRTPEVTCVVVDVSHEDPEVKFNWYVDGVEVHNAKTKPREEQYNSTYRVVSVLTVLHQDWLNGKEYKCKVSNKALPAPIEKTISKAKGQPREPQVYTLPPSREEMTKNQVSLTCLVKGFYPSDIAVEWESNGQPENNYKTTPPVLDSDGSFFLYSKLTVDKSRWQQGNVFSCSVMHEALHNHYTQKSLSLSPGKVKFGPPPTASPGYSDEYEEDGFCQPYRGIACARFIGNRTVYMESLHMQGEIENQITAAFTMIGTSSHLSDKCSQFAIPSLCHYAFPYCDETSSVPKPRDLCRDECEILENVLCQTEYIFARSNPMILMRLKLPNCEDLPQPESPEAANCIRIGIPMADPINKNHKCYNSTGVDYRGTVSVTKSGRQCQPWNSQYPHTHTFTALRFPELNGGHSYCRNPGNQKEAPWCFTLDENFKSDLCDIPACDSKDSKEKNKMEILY

B1: 82H02 TCE #3 (sequence optimized 82H02 bispecific TCE in Format 1A, low ROR1 / high CD3 affinity) (bispecific antibody)
heavy 1: EVQLVESGGGLVQPGGSLKLSCAASGFTFNTYAMNWVRQASGKGLEWVGRIRSKYNNYATYYADSVKGRFTISRDDSKNTLYLQMNSLKTEDTAVYYCVRHGNFGASYVSWFAYWGQGTMVTVSSASTKGPSVFPLAPSSKSTSGGTAALGCLVKDYFPEPVTVSWNSGALTSGVHTFPAVLQSSGLYSLSSVVTVPSSSLGTQTYICNVNHKPSNTKVDKKVEPKSCDKTHTCPPCPAPEAAGGPSVFLFPPKPKDTLMISRTPEVTCVVVDVSHEDPEVKFNWYVDGVEVHNAKTKPREEQYNSTYRVVSVLTVLHQDWLNGKEYKCKVSNKALGAPIEKTISKAKGQPFRPEVHLLPPSREEMTKNQVSLTCLARGFYPKDIAVEWESNGQPENNYKTTPSRQEPSQGTTTFAVTSKLTVDKSRWQQGNVFSCSVMHEALHNHYTQKTISLSPGK
heavy 2: EIVLTQSPATLSLSPGERATLSCRASQSVSSYLAWYQQKPGQAPRLLIYDASNRATGIPARFSGSGSGTDFTLTISSLEPEDFAVYYCQQRSNWPPFTFGQGTRLEIKGGGGSGGGGSGGGGSGGGGSEVQLLESGGGLVQPGGSLRLSCAASGFTFTSYAMSWVRQAPGKGLEWVSTISGSGGGTYYTDSVKGRFTISRDNSKNTLYLQMNSLRAEDTAVYYCAQGSSIFDYWGQGTLVTVSSEPKSSDKTHTCPPCPAPEAAGGPSVFLFPPKPKDTLMISRTPEVTCVVVDVSHEDPEVKFNWYVDGVEVHNAKTKPREEQYNSTYRVVSVLTVLHQDWLNGKEYKCKVSNKALGAPIEKTISKAKGQPREPQVYTLPPPSEELALNELVTLTCLVKGFYPSDIAVEWLQGSQELPREKYLTWAPVLDSDGSFFLYSILRVAAEDWKKGDTFSCSVMHEALHNHYTQKSLDRSPGKGGGGSGGGGSGGGGSGGGGSEIVLTQSPATLSLSPGERATLSCRASQSVSSYLAWYQQKPGQAPRLLIYDASNRATGIPARFSGSGSGTDFTLTISSLEPEDFAVYYCQQRSNWPPFTFGQGTRLEIKGGGGSGGGGSGGGGSGGGGSEVQLLESGGGLVQPGGSLRLSCAASGFTFTSYAMSWVRQAPGKGLEWVSTISGSGGGTYYTDSVKGRFTISRDNSKNTLYLQMNSLRAEDTAVYYCAQGSSIFDYWGQGTLVTVSS
light: QAVVTQEPSLTVSPGGTVTLTCRSSTGAVTTSNYANWVQQKPGQAPRGLIGGTNKRAPGTPARFSGSLLGGKAALTLSGVQPEDEAEYYCALWYSNLWVFGGGTKLTVLGQPKAAPSVTLFPPSSEELQANKATLVCLISDFYPGAVTVAWKADSSPVKAGVETTTPSKQSNNKYAASSYLSLTPEQWKSHRSYSCQVTHEGSTVEKTVAPTECS
notes: also called 82H02 #3; 82H02 VL1.06x1F3.5-VH1.03
For B1, the EC50 [1] was 1040 nM, the “fold difference in ROR1 binding affinity against 82H02 TCE #4” value [2] was roughly 3 fold and the “IFNγ release EC50, PBMCs: MDA-MB-231” value [3] was 425 nM. For the same binder, the “Max IFNγ, PBMCs: MDA-MB-231” value [3] was 881 pg/mL, the “fold difference in apparent ROR1 binding affinity between human and mouse ROR1” value [4] was roughly 5 fold and the “TDCC EC50, PBMCs: MDA-MB-231” value [5] was 148 nM. The EC50 [6] was 3 nM, the “IFNγ release AUC, PBMCs: MDA-MB-231-0.2” value [7] was 1.29e+06 and the “IFNγ release AUC, PBMCs: MDA-MB-231-0.4” value [7] was 1.68e+06. The “IFNγ release AUC, PBMCs: MDA-MB-231-0.6” value [7] was 1.62e+06, the “IFNγ release AUC, PBMCs: MDA-MB-231-1.3” value [7] was 4.32e+06 and the “IFNγ release AUC, PBMCs: MDA-MB-231-7” value [7] was 4.43e+06. For the same binder, the “IFNγ release EC50, PBMCs: MDA-MB-231-0.2” value [7] was 0.202 nM, the “IFNγ release EC50, PBMCs: MDA-MB-231-0.4” value [7] was 0.167 nM and the “IFNγ release EC50, PBMCs: MDA-MB-231-0.6” value [7] was 0.107 nM. For the same binder, the “IFNγ release EC50, PBMCs: MDA-MB-231-1.3” value [7] was 0.0308 nM, the “IFNγ release EC50, PBMCs: MDA-MB-231-7” value [7] was 0.0271 nM and the “IFNγ release Emax, PBMCs: MDA-MB-231-0.2” value [7] was 1830%. The “IFNγ release Emax, PBMCs: MDA-MB-231-0.4” value [7] was 2250%, the “IFNγ release Emax, PBMCs: MDA-MB-231-0.6” value [7] was 3160% and the “IFNγ release Emax, PBMCs: MDA-MB-231-1.3” value [7] was 4680%. The “IFNγ release Emax, PBMCs: MDA-MB-231-7” value [7] was 4730%, the “fold difference in ROR1 binding affinity against 82H02 TCE #4” value [8] was roughly 2 fold and the EC50 [9] was 4.4 nM. For the same binder, the EC50 [10] was 211 nM, the “TDCC AUC, PBMCs: MDA-MB-231-0.2” value [11] was 31300 and the “TDCC AUC, PBMCs: MDA-MB-231-0.4” value [11] was 44800. The “TDCC AUC, PBMCs: MDA-MB-231-0.6” value [11] was 51000, the “TDCC AUC, PBMCs: MDA-MB-231-1.3” value [11] was 61700 and the “TDCC AUC, PBMCs: MDA-MB-231-7” value [11] was 71400. For the same binder, the “TDCC EC50, PBMCs: MDA-MB-231-0.2” value [11] was 0.0181 nM, the “TDCC EC50, PBMCs: MDA-MB-231-0.4” value [11] was 0.0153 nM and the “TDCC EC50, PBMCs: MDA-MB-231-0.6” value [11] was 0.0138 nM. For the same binder, the “TDCC EC50, PBMCs: MDA-MB-231-1.3” value [11] was 0.0102 nM, the “TDCC EC50, PBMCs: MDA-MB-231-7” value [11] was 0.00546 nM and the “TDCC Emax, PBMCs: MDA-MB-231-0.2” value [11] was 33.1%. The “TDCC Emax, PBMCs: MDA-MB-231-0.4” value [11] was 47.8%, the “TDCC Emax, PBMCs: MDA-MB-231-0.6” value [11] was 53.8% and the “TDCC Emax, PBMCs: MDA-MB-231-1.3” value [11] was 63.2%. For the same binder, the “TDCC Emax, PBMCs: MDA-MB-231-7” value [11] was 72.8%.

B2: Clone 82H02 (from a Fab yeast surface display library of immunized transgenic rats) (Fab, V domains shown)
VH: EVQLLESGGGLVQPGGSLRLSCAASGFTFTSYAMSWVRQAPGKGLEWVSTISGSGGGTYYTDSVKGRFTISRDNSKNTLYLQMNSLRAEDTAVYYCAQGSSIFDYWGQGTLVTVSS
VL: EIVLTQSPATLSLSPGERATLSCRASQSVSSYLAWYQQKPGQAPRLLIYDASNRATGIPARFSGSGSGTDFTLTISSLEPEDFAVYYCQQRSNWPPCTFGQGTRLEIK
B2: no binding [12]; no binding [13].
